{"source": "patent US12371675B2", "about": "“Process and microorganism for synthesis of adipic acid from carboxylic acids” (THE GOVERNING COUNCIL OF THE UNIVERSITY OF TORONTO, priority 2015, dated 2025)", "proteins": {"B1": {"name": "Thermotoga maritima aldehyde reductase TM_0111, SEQ ID NO: 52 (Thermotoga maritima MSB8) (protein)", "chain": "MFKISFYLPTEIIFRVGAVDELEERAKKLGKKALIVTGRSSTKKTGLLQRVVDLLKKAGVESFVFDKIVPNPISDHVDEAAEIVRKEKIDFIIGLGGGSPIDSAKAISITAPNEGKFWDYVPVGGGKIPEKSIPVVAIPTTHGTGTEADPFAVITNPQTKEKVGIGYRNTFPVLSLVDPEVMKTLPKDQTAYTSMDAFYHAIEAFLNVNANPYSDVLALDAMKRIVTYLPVAYENGEDMEARTNLAWASTEAGITETLTGVIANHALEHGLSGFYPEITHGLGLCITGPYLFEYIFDHAYERLAIVGREVFGVYETDDRKAGRLAIKKLRDFQEMFGLNKRLSELGVKKEDIPKMAETGYRILNGVVVVTPGNLTAKDMEEIFNRCY"}, "B2": {"name": "Streptomyces avermitilis aminotransferase SAV2583, SEQ ID NO: 55 (Streptomyces avermitilis MA-4680 = NBRC 14893) (protein)", "chain": "MSALPQERRVVTAIPGPKSQELQARRTAVVAAGVGSVLPVFTTRAGGGIIEDVDGNRLIDFGSGIAVTSVGASAEAVVRRASAQLQDFTHTCFMVTPYEGYVAVAEALAELTPGDHAKKSALFNSGAEAVENAVKIARAYTKRQAVVVFDHGYHGRTNLTMALTAKNMPYKNGFGPFAPEVYRVPVAYGYRWLTGPENAGAEASAQAIDMINKQIGADNVAAIIIEPVLGEGGFIEPAKGFLPAISKFAKDNGIVFVADEIQSGFCRTGQWFACEDEGIVPDLITTAKGIAGGLPLAAVTGRAEIMDAAHAGGLGGTYGGNPVACAGALGAIETMKELDLNAKAKNIEAVMKARLGAMAEKFDIIGDVRGRGGMIAIELVKDRDTKEPNPEAAGALAKACHQEGLLVLTCGTYGNVLRFLPPLVIGEDLLNEGLDIIEQAFSRI"}, "B3": {"name": "Streptomyces coelicolor aldehyde reductase SCO0229, SEQ ID NO: 50 (Streptomyces coelicolor A3(2)) (protein)", "chain": "MQRQNWLITGVSTGLGRAFAQAALSAGHTVVGTVRSENDVRAFEELGPGHAHGRILDVTDGGAVNGVVAEVERSVGPLDVVVANAGYGLEGTFEETPLAEVRRQFDVNVFGAMATLQAALPHMRARRRGHLMAVTSMGGLMAVPGMSAYCGSKFALEGILEALGKEVAQFGIHVTAIEPGSFRTDWAGRSMTRAARTVADYDDLFAPIREARQKASGNQLGNPAKAGEAVVHITSVDQPPAHLVLGSDALRLVTAARTAVDEDIRAWEALSRTTDFPQGAQL"}, "B4": {"name": "Escherichia coli aminotransferase gabT, SEQ ID NO: 53 (Escherichia coli K-12) (protein)", "chain": "MNSNKELMQRRSQAIPRGVGQIHPIFADRAENCRVWDVEGREYLDFAGGIAVLNTGHLHPKVVAAVEAQLKKLSHTCFQVLAYEPYLELCEIMNQKVPGDFAKKTLLVTTGSEAVENAVKIARAATKRSGTIAFSGAYHGRTHYTLALTGKVNPYSAGMGLMPGHVYRALYPCPLHGISEDDAIASIHRIFKNDAAPEDIAAIVIEPVQGEGGFYASSPAFMQRLRALCDEHGIMLIADEVQSGAGRTGTLFAMEQMGVAPDLTTFAKSIAGGFPLAGVTGRAEVMDAVAPGGLGGTYAGNPIACVAALEVLKVFEQENLLQKANDLGQKLKDGLLAIAEKHPEIGDVRGLGAMIAIELFEDGDHNKPDAKLTAEIVARARDKGLILLSCGPYYNVLRILVPLTIEDAQIRQGLEIISQCFDEAKQ", "notes": "6His-tag (N); made in house; host or cells: E. coli BL21 (DE3)"}, "B5": {"name": "Sinorhizobium meliloti aminotransferase SM2011_b20423, SEQ ID NO: 60 (Sinorhizobium meliloti 1021) (protein)", "chain": "MLERSNELTAWDRDHFFHPSTHMGMHARGETPTRVIGGGEGVYITDISGKRSLDAFAGLYCVNVGYGRQKIADAIAEQAKNLAYYHAYVGHGTEASIRLSKMIIDRAPEGMSRVYFGLSGSDANETNIKLIWYYNNILGRPEKKKIISRWRGYHGSGVMTGSLTGLHLFHNAFDLPRAPILHTEAPYYFRRPDRSMSEEQFSQYCADKLEEMILAEGPDTVAAFIGEPILGTGGIVPPPKGYWEKIQAVLQKYDILLVADEVVTGFGRLGTMFGSDHYGIKPDLITIAKGLTSAYAPLSGTIVSDKLWQVLVKGSDELGAIGHGWTYSAHPICAAAGIANLELIDELGIVENAGSTGAYFRAELQKAVGDHRHVGEVRGDGLMAAIEFVEDRDDRAFFDPGRKVGPQVAAALLERGVIGRAMPQGDILGFAPPLCLTRDEADIVVKAAADTIQSVLGR"}, "B6": {"name": "Pseudomonas putida aldehyde reductase PP_3370, SEQ ID NO: 45 (Pseudomonas putida KT2440) (protein)", "chain": "MQYVKLGSTGLDISRLCLGCMTFGEPDAGTHPWTLGEDASRPIIRHAVEQGINFFDTANSYSAGTSEIILGKLLREFTRREETVIATKVFFPANMWEGASRPNEQGLSRKAIMANIDASLSRLGTDYVDLYQIHRWDYHTPIEETMEALHDVVKAGKARYIGASSMYAWQFAKAQQVAANHGWSRFVSMQNYLNLIYREEEREMIPLCLDQGVGLMPWSPMARGRLTRPHGQQTQRTRTDVSGQSFYEKTEVEDGRVIDVVEQIASERGVPMAQVALAWVLGRAGVSAPIVGASKPAHLDDALGALSLQLSEDEVARLQAPYVPHAVTGFK"}}, "key": {"[1]": {"substrate": "CCCC=O", "assay": "AR kinetics, aldehyde reduction followed by NAD(P)H oxidation", "type": "biochemical, Thermotoga maritima", "conditions": "other: butyraldehyde, pH 7.5", "source_text": "(§1) 28 aldehyde reductases from different bacteria were cloned and overexpressed in E. coli. Enzymes purified using affinity chromatography on Ni-NTA resin were screened for reductase activity with adipaldehyde and butyraldehyde in presence of both NADPH and NADH (Table 5). Butyraldehyde was used as a substrate substitute for 4-oxo-butanal, which is not commercially available. Reactions were followed spectrophotometrically, by cofactor oxidation at 340 nm.\n(§2) Enzyme activity of purified ARs was measured spectrophotometrically in 96-well plates Reaction mixtures contained 100 mM HEPES buffer (pH 7.5), 0.4 mM NADH/NADPH, 10 mM adipaldehyde or butylaldehyde, and proteins (10 μg for adipaldehyde screen, 2 μg for butyraldehyde screen) in a final volume of 200 μL Reaction mixture for adipaldehyde screening contained 1.8% DMSO. Enzyme reactions were monitored by following the decrease in absorbance at 340 nm (ε340 nm=6,220/M·cm) due to oxidation of NAD(P)H to NAD(P)+.\n(§3) ARs RHA1_ro05279, PA1146, SC00229, PP_3370 were characterised for saturation with adipaldehyde, PP_3370, PSPTO_2097, RHA1_ro05279, SC00229, TM_0111, PA1146 were characterised for butyraldehyde saturation (Table 10). […] For both substrates maximal kcat/Km with minimal Km values was shown by AR PP 3370 from Pseudomonas putida."}, "[2]": {"substrate": "O=CCCCCC=O", "assay": "AT kinetics, coupled with alanine and glutamate dehydrogenases", "type": "biochemical, Streptomyces avermitilis", "conditions": "other: amino-donor Ala/Glu; pH 7.5", "method": "(§4) 28 PLP-dependent aminotransferases (from the classes I, II and III) were cloned and overexpressed in E. coli (Table 6). Enzymes were purified using affinity chromatography on a Ni-NTA resin and were screened for […] activity towards adipaldehyde using alanine and glutamate as amino-donors. Enzyme activity was measured spectrophotometrically using a coupled reaction with the NADPH/NADH-dependent alanine and glutamate dehydrogenases in the presence of excess of ammonium chloride.\n(§5) Reaction was monitored by following the decrease in absorbance of NAD(P)H to NAD(P)+ at 340 nm (ε340 nm=6,220/M·cm). Coupled enzymes can aminate pyruvate/ketoglutarate produced by ATs in excess of NH4Cl."}, "[3]": {"substrate": "CCCC=O", "assay": "AR kinetics, aldehyde reduction followed by NAD(P)H oxidation", "type": "biochemical, Streptomyces coelicolor", "conditions": "other: butyraldehyde, pH 7.5", "source_text": "as §1, §2, §3"}, "[4]": {"substrate": "O=CCCCCC=O", "assay": "AR kinetics, aldehyde reduction followed by NAD(P)H oxidation", "type": "biochemical, Streptomyces coelicolor", "conditions": "other: adipaldehyde; cofactor NADPH; 1,8% DMSO; pH 7.5", "source_text": "as §1, §2, §3"}, "[5]": {"substrate": "O=CCCCCC=O", "assay": "AT kinetics, coupled with alanine and glutamate dehydrogenases", "type": "biochemical, Escherichia coli", "conditions": "other: amino-donor Ala/Glu; pH 7.5", "method": "as §4, §5"}, "[6]": {"substrate": "O=CCCCCC=O", "assay": "AT kinetics, coupled with alanine and glutamate dehydrogenases", "type": "biochemical, Sinorhizobium meliloti", "conditions": "other: amino-donor Ala/Glu; pH 7.5", "method": "as §4, §5"}, "[7]": {"substrate": "CCCC=O", "assay": "AR kinetics, aldehyde reduction followed by NAD(P)H oxidation", "type": "biochemical, Pseudomonas putida", "conditions": "other: butyraldehyde, pH 7.5", "source_text": "as §1, §2, §3"}, "[8]": {"substrate": "O=CCCCCC=O", "assay": "AR kinetics, aldehyde reduction followed by NAD(P)H oxidation", "type": "biochemical, Pseudomonas putida", "conditions": "other: adipaldehyde, 1,8% DMSO, pH 7.5", "source_text": "as §1, §2, §3"}}}
{"protein": "B1", "values": [{"measurement": "Km", "setting": "[1]; cofactor NADH", "value": "1370 ± 310", "unit": "µM"}, {"measurement": "kcat", "setting": "[1]; cofactor NADH", "value": "0.90 ± 0.05", "unit": "s⁻¹"}, {"measurement": "kcat/Km", "setting": "[1]; cofactor NADH", "value": "(6.57 ± 0.36) × ×10^2 M^−1 · s^−1"}, {"measurement": "Km", "setting": "[1]; cofactor NADPH", "value": "2720 ± 1390", "unit": "µM"}, {"measurement": "kcat", "setting": "[1]; cofactor NADPH", "value": "0.30 ± 0.06", "unit": "s⁻¹"}, {"measurement": "kcat/Km", "setting": "[1]; cofactor NADPH", "value": "(1.10 ± 0.22) × ×10^2 M^−1 · s^−1"}]}
{"protein": "B2", "values": [{"measurement": "Km", "setting": "[2]", "value": "1350 ± 190", "unit": "µM"}, {"measurement": "kcat", "setting": "[2]", "value": "0.39 ± 0.02", "unit": "s⁻¹"}, {"measurement": "kcat/Km", "setting": "[2]", "value": "(2.90 ± 0.13) × ×10^2 M^−1 · s^−1"}]}
{"protein": "B3", "values": [{"measurement": "Km", "setting": "[3]; cofactor NADH", "value": "6560 ± 2540", "unit": "µM"}, {"measurement": "kcat", "setting": "[3]; cofactor NADH", "value": "0.90 ± 0.05", "unit": "s⁻¹"}, {"measurement": "kcat/Km", "setting": "[3]; cofactor NADH", "value": "(1.07 ± 0.18) × ×10^2 M^−1 · s^−1"}, {"measurement": "Km", "setting": "[3]; cofactor NADPH", "value": "35700 ± 10500", "unit": "µM"}, {"measurement": "kcat", "setting": "[3]; cofactor NADPH", "value": "21.9 ± 4.69", "unit": "s⁻¹"}, {"measurement": "kcat/Km", "setting": "[3]; cofactor NADPH", "value": "(6.15 ± 1.31) × ×10^2 M^−1 · s^−1"}, {"measurement": "Km", "setting": "[4]", "value": "8480 ± 580", "unit": "µM"}, {"measurement": "kcat", "setting": "[4]", "value": "3.79 ± 0.10", "unit": "s⁻¹"}, {"measurement": "kcat/Km", "setting": "[4]", "value": "(4.47 ± 0.12) × ×10^2 M^−1 · s^−1"}]}
{"protein": "B4", "values": [{"measurement": "Km", "setting": "[5]", "value": "670 ± 70", "unit": "µM"}, {"measurement": "kcat", "setting": "[5]", "value": "0.61 ± 0.02", "unit": "s⁻¹"}, {"measurement": "kcat/Km", "setting": "[5]", "value": "9.22±0.27 ×10^2 M^−1 · s^−1"}]}
{"protein": "B5", "values": [{"measurement": "Km", "setting": "[6]", "value": "2640 ± 350", "unit": "µM"}, {"measurement": "kcat", "setting": "[6]", "value": "0.28 ± 0.01", "unit": "s⁻¹"}, {"measurement": "kcat/Km", "setting": "[6]", "value": "(1.05 ± 0.06) × ×10^2 M^−1 · s^−1"}]}
{"protein": "B6", "values": [{"measurement": "Km", "setting": "[7]; cofactor NADH", "value": "16100 ± 1890", "unit": "µM"}, {"measurement": "kcat", "setting": "[7]; cofactor NADH", "value": "10.7 ± 0.73", "unit": "s⁻¹"}, {"measurement": "kcat/Km", "setting": "[7]; cofactor NADH", "value": "(6.64 ± 0.45) × ×10^2 M^−1 · s^−1"}, {"measurement": "Km", "setting": "[7]; cofactor NADPH", "value": "1530 ± 110", "unit": "µM"}, {"measurement": "kcat", "setting": "[7]; cofactor NADPH", "value": "8.54 ± 0.22", "unit": "s⁻¹"}, {"measurement": "kcat/Km", "setting": "[7]; cofactor NADPH", "value": "5.58±0.14 ×10^3 M^−1 · s^−1"}, {"measurement": "Km", "setting": "[8]; cofactor NADH", "value": "4780 ± 490", "unit": "µM"}, {"measurement": "kcat", "setting": "[8]; cofactor NADH", "value": "1.74 ± 0.08", "unit": "s⁻¹"}, {"measurement": "kcat/Km", "setting": "[8]; cofactor NADH", "value": "(3.64 ± 0.16) × ×10^2 M^−1 · s^−1"}, {"measurement": "Km", "setting": "[8]; cofactor NADPH", "value": "290 ± 20", "unit": "µM"}, {"measurement": "kcat", "setting": "[8]; cofactor NADPH", "value": "6.03 ± 0.25", "unit": "s⁻¹"}, {"measurement": "kcat/Km", "setting": "[8]; cofactor NADPH", "value": "2.08±0.09 ×10^4 M^−1 · s^−1"}]}
